Source: patent US12295987B2, “Method of using a GIP/GLP1 co-agonist for diabetes” (Eli Lilly and Company, priority 2018, dated 2025)

Target: T1, human gastric inhibitory peptide receptor (hGIPR) (Homo sapiens, UniProt P48546)
T1 construct: expressed in transfected cells; host or cells: HEK293
T1 sequence (P48546 22-466): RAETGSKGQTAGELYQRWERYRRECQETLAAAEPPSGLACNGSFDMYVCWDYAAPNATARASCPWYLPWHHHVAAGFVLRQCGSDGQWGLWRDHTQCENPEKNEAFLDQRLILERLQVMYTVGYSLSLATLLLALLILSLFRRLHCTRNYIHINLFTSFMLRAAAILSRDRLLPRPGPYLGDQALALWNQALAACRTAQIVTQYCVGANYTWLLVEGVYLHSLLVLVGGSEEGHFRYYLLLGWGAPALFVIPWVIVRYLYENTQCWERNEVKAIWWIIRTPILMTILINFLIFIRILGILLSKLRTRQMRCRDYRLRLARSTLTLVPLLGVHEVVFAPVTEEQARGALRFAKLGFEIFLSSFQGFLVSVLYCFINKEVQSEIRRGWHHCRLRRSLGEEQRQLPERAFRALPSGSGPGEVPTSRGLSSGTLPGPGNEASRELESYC
Assay: cAMP pharmacological functional assay in presence of 0.1% casein, hGIPR
Format: cell-based
Conditions: ratio of hGIPR to hGLP1R cAMP EC50 ratios

Substance | [hGIPR/hGLP1R] EC50 Ratio
Y-Aib-EGT-αMeF(2F)-TSDHSI-αMeL-LDEK((2-[2-(2-Amino-ethoxy)-ethoxy]-acetyl)2-CO—(CH2)18—CO2H)AQ-Aib-TFI-(D-Glu)-YLIEGGPSSGAPPPS-NH2 (YXEGTXTSDHSIXLDEKAQXTFIXYLIEGGPSSGAPPPS; Aib, αMeF(2F), αMeL, D-Glu; lipidated K; amide; (2)..(2) Xaa at position 2 is Aib; (6)..(6) Xaa at position 6 is alpha-methyl-Phe(2F); (13)..(13) Xaa at position 13 is alpha-methyl-Leu; MOD_RES (17)..(17) Lys at position 17 is chemically modified by conjugation of the epsilon-amino group of the Lys side chain with (2-[2-(2-amino-ethoxy)-ethoxy]-acetyl)2-CO-(CH2)18-CO2H; (20)..(20) Xaa at position 20 is Aib; (24)..(24) Xaa at position 24 is D-Gl) [Peptide 174] | 4.99
Y-Aib-EGT-αMeF(2F)-TSDLSI-αMeL-LD-Orn-K((2-[2-(2-Amino-ethoxy)-ethoxy]-acetyl)2-(γGlu)-CO—(CH2)16—CO2H)AQ-Aib-AFI-(D-Glu)-αMeY-LIEGGPSSGAPPPS-NH2 (YXEGTXTSDLSIXLDXKAQXAFIXXLIEGGPSSGAPPPS; Aib, Orn, αMe residues, lipidated Lys, D-Glu, amide; (2)..(2) Xaa at position 2 is Aib; (6)..(6) Xaa at position 6 is alpha-methyl-Phe(2F); (13)..(13) Xaa at position 13 is alpha-methyl-Leu; (16)..(16) Xaa at position 16 is Orn; MOD_RES (17)..(17) Lys at position 17 is chemically modified by conjugation of the epsilon-amino group of the Lys side chain with (2-[2-(2-amino-ethoxy)-ethoxy]-acetyl)2-(gamma-Glu)-CO-(CH2)16- CO2H; (20)..(20) Xaa at positi) [Peptide 244] | 6.41
Y-Aib-EGT-αMeF(2F)-TSDLSI-αMeL-LD-Orn-K((2-[2-(2-Amino-ethoxy)-ethoxy]-acetyl)2-(γGlu)-CO—(CH2)16—CO2H)AQ-Aib-EFI-(D-Glu)-αMeY-LIEGGPSSGAPPPS-NH2 (YXEGTXTSDLSIXLDXKAQXEFIXXLIEGGPSSGAPPPS; Aib, Orn, αMe residues, lipidated Lys, D-Glu, amide; (2)..(2) Xaa at position 2 is Aib; (6)..(6) Xaa at position 6 is alpha-methyl-Phe(2F); (13)..(13) Xaa at position 13 is alpha-methyl-Leu; (16)..(16) Xaa at position 16 is Orn; MOD_RES (17)..(17) Lys at position 17 is chemically modified by conjugation of the epsilon-amino group of the Lys side chain with (2-[2-(2-amino-ethoxy)-ethoxy]-acetyl)2-(gamma-Glu)-CO-(CH2)16- CO2H; (20)..(20) Xaa at positi) [Peptide 238] | 6.37
Y-Aib-EGT-αMeF(2F)-TSDLSI-αMeL-LD-Orn-K((2-[2-(2-Amino-ethoxy)-ethoxy]-acetyl)2-(γGlu)-CO—(CH2)16—CO2H)AQ-Aib-TFI-(D-Glu)-αMeY-LIEGGPSSGAPPPS-NH2 (YXEGTXTSDLSIXLDXKAQXTFIXXLIEGGPSSGAPPPS; Aib, Orn, αMe residues, lipidated Lys, D-Glu, amide; (2)..(2) Xaa at position 2 is Aib; (6)..(6) Xaa at position 6 is alpha-methyl-Phe(2F); (13)..(13) Xaa at position 13 is alpha-methyl-Leu; (16)..(16) Xaa at position 16 is Orn; MOD_RES (17)..(17) Lys at position 17 is chemically modified by conjugation of the epsilon-amino group of the Lys side chain with (2-[2-(2-amino-ethoxy)-ethoxy]-acetyl)2-(gamma-Glu)-CO-(CH2)16- CO2H; (20)..(20) Xaa at positi) [Peptide 243] | 7.12
Y-Aib-EGT-αMeF(2F)-TSDLSI-αMeL-LDEK((2-[2-(2-Amino-ethoxy)-ethoxy]-acetyl)2-(γGlu)-CO—(CH2)18—CO2H)AQ-Aib-EFI-(D-Glu)-YLIEGGPSSGAPPPS-NH2 (YXEGTXTSDLSIXLDEKAQXEFIXYLIEGGPSSGAPPPS; Aib, αMeF(2F), αMeL, D-Glu; lipidated K; amide; (2)..(2) Xaa at position 2 is Aib; (6)..(6) Xaa at position 6 is alpha-methyl-Phe(2F); (13)..(13) Xaa at position 13 is alpha-methyl-Leu; MOD_RES (17)..(17) Lys at position 17 is chemically modified by conjugation of the epsilon-amino group of the Lys side chain with (2-[2-(2-amino-ethoxy)-ethoxy]-acetyl)2-(gamma-Glu)-CO-(CH2)18- CO2H; (20)..(20) Xaa at position 20 is Aib; (24)..(24) Xaa at positi) [Peptide 183] | 3.68
Y-Aib-EGT-αMeF(2F)-TSDQSI-αMeL-LDEK((2-[2-(2-Amino-ethoxy)-ethoxy]-acetyl)2-(γGlu)-CO—(CH2)18—CO2H)AQ-Aib-EFI-(D-Glu)-YLIEGGPSSGAPPPS-NH2 (YXEGTXTSDQSIXLDEKAQXEFIXYLIEGGPSSGAPPPS; Aib, αMeF(2F), αMeL, D-Glu; lipidated K; amide; (2)..(2) Xaa at position 2 is Aib; (6)..(6) Xaa at position 6 is alpha-methyl-Phe(2F); (13)..(13) Xaa at position 13 is alpha-methyl-Leu; MOD_RES (17)..(17) Lys at position 17 is chemically modified by conjugation of the epsilon-amino group of the Lys side chain with (2-[2-(2-amino-ethoxy)-ethoxy]-acetyl)2-(gamma-Glu)-CO-(CH2)18- CO2H; (20)..(20) Xaa at position 20 is Aib; (24)..(24) Xaa at positi) [Peptide 187] | 6.57
Y-Aib-EGT-αMeF(2F)-TSDVSI-αMeL-LD-Orn-K((2-[2-(2-Amino-ethoxy)-ethoxy]-acetyl)2-(γGlu)-CO—(CH2)16—CO2H)AQ-Aib-AFI-(D-Glu)-αMeY-LIEGGPSSGAPPPS-NH2 (YXEGTXTSDVSIXLDXKAQXAFIXXLIEGGPSSGAPPPS; Aib, Orn, αMe residues, lipidated Lys, D-Glu, amide; (2)..(2) Xaa at position 2 is Aib; (6)..(6) Xaa at position 6 is alpha-methyl-Phe(2F); (13)..(13) Xaa at position 13 is alpha-methyl-Leu; (16)..(16) Xaa at position 16 is Orn; MOD_RES (17)..(17) Lys at position 17 is chemically modified by conjugation of the epsilon-amino group of the Lys side chain with (2-[2-(2-amino-ethoxy)-ethoxy]-acetyl)2-(gamma-Glu)-CO-(CH2)16- CO2H; (20)..(20) Xaa at positi) [Peptide 242] | 2.85
Y-Aib-EGT-αMeF(2F)-TSDVSI-αMeL-LD-Orn-K((2-[2-(2-Amino-ethoxy)-ethoxy]-acetyl)2-(γGlu)-CO—(CH2)16—CO2H)AQ-Aib-TFI-(D-Glu)-αMeY-LIEGGPSSGAPPPS-NH2 (YXEGTXTSDVSIXLDXKAQXTFIXXLIEGGPSSGAPPPS; Aib, Orn, αMe residues, lipidated Lys, D-Glu, amide; (2)..(2) Xaa at position 2 is Aib; (6)..(6) Xaa at position 6 is alpha-methyl-Phe(2F); (13)..(13) Xaa at position 13 is alpha-methyl-Leu; (16)..(16) Xaa at position 16 is Orn; MOD_RES (17)..(17) Lys at position 17 is chemically modified by conjugation of the epsilon-amino group of the Lys side chain with (2-[2-(2-amino-ethoxy)-ethoxy]-acetyl)2-(gamma-Glu)-CO-(CH2)16- CO2H; (20)..(20) Xaa at positi) [Peptide 241] | 3.77
Y-Aib-EGT-αMeF(2F)-TSDYSI-Aib-LD-Orn-K((2-[2-(2-Amino-ethoxy)-ethoxy]-acetyl)2-(Glu)-CO—(CH2)16—CO2H)AQ-Aib-EFI-(D-Glu)-YLIEGGPSSGAPPPS-NH2 (YXEGTXTSDYSIXLDXKAQXEFIXYLIEGGPSSGAPPPS; Aib, Orn, αMeF(2F), lipidated Lys, D-Glu, amide; (2)..(2) Xaa at position 2 is Aib; (6)..(6) Xaa at position 6 is alpha-methyl-Phe(2F); (13)..(13) Xaa at position 13 is Aib; (16)..(16) Xaa at position 16 is Orn; MOD_RES (17)..(17) Lys at position 17 is chemically modified by conjugation of the epsilon-amino group of the Lys side chain with (2-[2-(2-amino-ethoxy)-ethoxy]-acetyl)2-(gamma-Glu)-CO-(CH2)16- CO2H; (20)..(20) Xaa at position 20 is Aib;) [Peptide 247] | 4.20
